Data from article PMC8395244, “The Oxoglutarate Binding Site and Regulatory Mechanism Are Conserved in Ammonium Transporter Inhibitors GlnKs from Methanococcales” (International Journal of Molecular Sciences, 2021).

How the values were obtained:
[1] = target: MtGlnK1 (GlnK isoform 1 from Methanothermococcus thermolithotrophicus), recombinant, N-terminally tagged (Methanothermococcus thermolithotrophicus); assay: crystal structure; sitting drop at 18 °C; crystallised with or without 2 mM ATP, 2 mM 2OG and 2 mM MgCl2; solved by molecular replacement with PDB 2J9D
[2] = target: MtGlnK2 (GlnK isoform 2 from Methanothermococcus thermolithotrophicus), recombinant, N-terminally tagged (Methanothermococcus thermolithotrophicus); assay: as above

| Substance | stoichiometry N [1] | stoichiometry N [2] |
| --- | --- | --- |
| MtGlnK1 (GlnK isoform 1 from Methanothermococcus thermolithotrophicus), recombinant, N-terminally tagged (natural protein) | 3 |  |
| MtGlnK2 (GlnK isoform 2 from Methanothermococcus thermolithotrophicus), recombinant, N-terminally tagged (natural protein) |  | 3 |
